Numbering of substitutions follows the chain as printed. Numbers in names are those of the source.
B1: equine IgG1 T286H (antibody, part only; not given: variable domains, not shown: another chain or arm of the molecule)
constant: ASTTAPKVFALAPGCGTTSDSTVALGCLVSGYFPEPVKVSWNSGSLTSGVHTFPSVLQSSGFYSLSSMVTVPASTWTSETYICNVVHAASNFKVDKRIEPIPDNHQKVCDMSKCPKCPAPELLGGPSVFIFPPNPKDTLMITRTPEVTCVVVDVSQENPDVKFNWYMDGVEVRHATTRPKEEQFNSTYRVVSVLRIQHQDWLSGKEFKCKVNNQALPQPIERTITKTKGRSQEPQVYVLAPHPDELSKSKVSVTCLVKDFYPPEINIEWQSNGQPELETKYSTTQAQQDSDGSYFLYSKLSVDRNRWQQGTTFTCGVMHEALHNHYTQKNVSKNPGK
B2: equine IgG1 T286I (antibody, part only; not given: variable domains, not shown: another chain or arm of the molecule)
constant: B1 constant with H174I
B3: equine IgG1 T286K (antibody, part only; not given: variable domains, not shown: another chain or arm of the molecule)
constant: B1 constant with H174K
B4: equine IgG1 T286L (antibody, part only; not given: variable domains, not shown: another chain or arm of the molecule)
constant: B1 constant with H174L
B5: equine IgG4 K311G (antibody, part only; not given: variable domains, not shown: another chain or arm of the molecule; small tags and cut ends)
constant: ASTTAPKVFPLASHSAATSGSTVALGCLVSSYFPEPVTVSWNSGALTSGVHTFPSVLQSSGLYSLSSMVTVPASSLKSQTYICNVAHPASSTKVDKKIVIKECNGGCPAECLQVGPSVFIFPPKPKDVLMISRTPTVTCVVVDVGHDFPDVQFNWYVDGVETHTATTEPKQEQFNSTYRVVSVLPIQHGDWLSGKEFKCKVNNKALPAPVERTISKPTGQPREPQVYVLAPHRDELSKNKVSVTCLVKDFYPTDIDIEWKSNGQPEPETKYSTTPAQLDSDGSYFLYSKLTVETNRWQQGTTFTCAVMHEALHNHYTEKSVSKSPGK
B6: equine IgG4 M428C (antibody, part only; not given: variable domains, not shown: another chain or arm of the molecule)
constant: B5 constant with G189K, M308C
B7: equine IgG4 K311T (antibody, part only; not given: variable domains, not shown: another chain or arm of the molecule)
constant: B5 constant with G189T
B8: equine IgG4 M428A (antibody, part only; not given: variable domains, not shown: another chain or arm of the molecule)
constant: B5 constant with G189K, M308A
B9: equine IgG4 K311Y (antibody, part only; not given: variable domains, not shown: another chain or arm of the molecule)
constant: B5 constant with G189Y
B10: equine IgG4 A426P (antibody, part only; not given: Variable domains, not shown: another chain or arm of the molecule)
constant: B5 constant with G189K, A306P
B11: equine IgG4 A426M (antibody, part only; not given: Variable domains, not shown: another chain or arm of the molecule)
constant: B5 constant with G189K, A306M
B12: equine IgG4 A426I (antibody, part only; not given: variable domains, not shown: another chain or arm of the molecule)
constant: B5 constant with G189K, A306I
B13: equine IgG4 A426D (antibody, part only; not given: variable domains, not shown: another chain or arm of the molecule)
constant: B5 constant with G189K, A306D
B14: equine IgG4 A426N (antibody, part only; not given: variable domains, not shown: another chain or arm of the molecule)
constant: B5 constant with G189K, A306N
B15: equine IgG4 A426Q (antibody, part only; not given: variable domains, not shown: another chain or arm of the molecule)
constant: B5 constant with G189K, A306Q
B16: equine IgG4 K311M (antibody, part only; not given: variable domains, not shown: another chain or arm of the molecule)
constant: B5 constant with G189M
B17: equine IgG4 K311Q (antibody, part only; not given: variable domains, not shown: another chain or arm of the molecule)
constant: B5 constant with G189Q
B18: equine IgG4 A426T (antibody, part only; not given: Variable domains, not shown: another chain or arm of the molecule)
constant: B5 constant with G189K, A306T
B19: equine IgG4 A426L (antibody, part only; not given: variable domains, not shown: another chain or arm of the molecule)
constant: B5 constant with G189K, A306L
B20: equine IgG4 A426H (antibody, part only; not given: variable domains, not shown: another chain or arm of the molecule)
constant: B5 constant with G189K, A306H
B21: equine IgG4 A426Y (antibody, part only; not given: variable domains, not shown: another chain or arm of the molecule)
constant: B5 constant with G189K, A306Y
B22: equine IgG4 A426C (antibody, part only; not given: variable domains, not shown: another chain or arm of the molecule)
constant: B5 constant with G189K, A306C
B23: equine IgG4 K311S (antibody, part only; not given: variable domains, not shown: another chain or arm of the molecule)
constant: B5 constant with G189S
B24: equine IgG4 K311H (antibody, part only; not given: variable domains, not shown: another chain or arm of the molecule; small tags and cut ends)
constant: B5 constant with G189H
B25: equine IgG4 A426K (antibody, part only; not given: variable domains, not shown: another chain or arm of the molecule)
constant: B5 constant with G189K, A306K
B26: equine IgG4 A426E (antibody, part only; not given: variable domains, not shown: another chain or arm of the molecule)
constant: B5 constant with G189K, A306E
B27: equine IgG4 A426F (antibody, part only; not given: variable domains, not shown: another chain or arm of the molecule)
constant: B5 constant with G189K, A306F
B28: equine IgG4 K311V (antibody, part only; not given: variable domains, not shown: another chain or arm of the molecule)
constant: B5 constant with G189V
B29: equine IgG4 K311R (antibody, part only; not given: variable domains, not shown: another chain or arm of the molecule)
constant: B5 constant with G189R
B30: equine IgG4 K311N (antibody, part only; not given: variable domains, not shown: another chain or arm of the molecule)
constant: B5 constant with G189N
B31: equine IgG4 K311L (antibody, part only; not given: Variable domains, not shown: another chain or arm of the molecule)
constant: B5 constant with G189L
B32: equine IgG4 K311I (antibody, part only; not given: variable domains, not shown: another chain or arm of the molecule; small tags and cut ends)
constant: B5 constant with G189I
B33: equine IgG4 A426W (antibody, part only; not given: variable domains, not shown: another chain or arm of the molecule)
constant: B5 constant with G189K, A306W
B34: equine IgG4 A426V (antibody, part only; not given: Variable domains, not shown: another chain or arm of the molecule)
constant: B5 constant with G189K, A306V
B35: equine IgG4 A426G (antibody, part only; not given: variable domains, not shown: another chain or arm of the molecule)
constant: B5 constant with G189K, A306G
B36: equine IgG4 A426S (antibody, part only; not given: variable domains, not shown: another chain or arm of the molecule)
constant: B5 constant with G189K, A306S
B37: equine IgG4 K311P (antibody, part only; not given: Variable domains, not shown: another chain or arm of the molecule)
constant: B5 constant with G189P
B38: equine IgG4 K311W (antibody, part only; not given: variable domains, not shown: another chain or arm of the molecule)
constant: B5 constant with G189W
B39: equine IgG4 A426R (antibody, part only; not given: variable domains, not shown: another chain or arm of the molecule)
constant: B5 constant with G189K, A306R

Biological target: equine FcRn (large alpha subunit p51) / equine beta-2-microglobulin complex, biotinylated (equine) (UniProt P30441)
Chain of UniProt P30441 (P30441 21-118, one chain of several): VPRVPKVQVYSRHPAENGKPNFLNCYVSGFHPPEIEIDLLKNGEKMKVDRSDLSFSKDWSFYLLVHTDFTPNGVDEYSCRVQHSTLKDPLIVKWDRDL
Assay: SPR (Biacore), pH 6

Binder | Kd
B1 | 0.0224 µM
B2 | 0.0182 µM
B3 | 0.0373 µM
B4 | 0.0123 µM
B5 | 0.0512 µM
B6 | 0.0532 µM
B7 | 0.0255 µM
B8 | 23 µM
B9 | 0.0213 µM
B10 | 0.0098 µM
B11 | 0.0185 µM
B12 | 0.0174 µM
B13 | 0.0155 µM
B14 | 0.0187 µM
B15 | 0.0212 µM
B16 | 0.0164 µM
B17 | 0.0219 µM
B18 | 0.0158 µM
B19 | 0.0174 µM
B20 | 0.0178 µM

Binder | Kd
B21 | 0.0123 µM
B22 | 0.0182 µM
B23 | 0.0124 µM
B24 | 0.0356 µM
B25 | 0.0145 µM
B26 | 0.0182 µM
B27 | 0.0176 µM
B28 | 0.0224 µM
B29 | 0.0161 µM
B30 | 0.0411 µM
B31 | 0.028 µM
B32 | 0.0306 µM
B33 | 0.0144 µM
B34 | 0.0188 µM
B35 | 0.0333 µM
B36 | 0.0211 µM
B37 | 2 µM
B38 | 0.0271 µM
B39 | 0.022 µM
